B1: fluorophosphonate-binding hydrolase F (FphF), apo form (enzyme, Staphylococcus aureus, UniProt Q2FUY3 2-253, looked up)
chain: AYISLNYHSPTIGMHQNLTVILPEDQSFFNSDTTVKPLKTLMLLHGLSSDETTYMRYTSIERYANEHKLAVIMPNVDHSAYANMAYGHSYYDYILEVYDYVHQIFPLSKKRDDNFIAGHSMGGYGTIKFALTQGDKFAKAVPLSAVFEAQNLMDLEWNDFSKEAIIGNLSSVKGTEHDPYYLLDKAVAEDKQIPKLLIMCGKQDFLYQDNLDFIDYLSRINVPYQFEDGPGDHDYAYWDQAIKRAITWMVND
B2: FphF with the 2-phenylpiperidine-1-carbonyl moiety of KT129 or KT130 covalently attached to Ser121 (enzyme, Staphylococcus aureus, UniProt Q2FUY3 2-253, looked up)
chain: AYISLNYHSPTIGMHQNLTVILPEDQSFFNSDTTVKPLKTLMLLHGLSSDETTYMRYTSIERYANEHKLAVIMPNVDHSAYANMAYGHSYYDYILEVYDYVHQIFPLSKKRDDNFIAGHSMGGYGTIKFALTQGDKFAKAVPLSAVFEAQNLMDLEWNDFSKEAIIGNLSSVKGTEHDPYYLLDKAVAEDKQIPKLLIMCGKQDFLYQDNLDFIDYLSRINVPYQFEDGPGDHDYAYWDQAIKRAITWMVND
modifications: 2-phenylpiperidine-1-carbonyl moiety covalently attached to the terminal side chain oxygen atom of Ser121
B3: FphF with the heptyl acyl moiety of 4-MU heptanoate covalently linked to Ser121 (enzyme, Staphylococcus aureus, UniProt Q2FUY3 2-253, looked up)
chain: AYISLNYHSPTIGMHQNLTVILPEDQSFFNSDTTVKPLKTLMLLHGLSSDETTYMRYTSIERYANEHKLAVIMPNVDHSAYANMAYGHSYYDYILEVYDYVHQIFPLSKKRDDNFIAGHSMGGYGTIKFALTQGDKFAKAVPLSAVFEAQNLMDLEWNDFSKEAIIGNLSSVKGTEHDPYYLLDKAVAEDKQIPKLLIMCGKQDFLYQDNLDFIDYLSRINVPYQFEDGPGDHDYAYWDQAIKRAITWMVND
modifications: heptyl acyl moiety covalently linked to Ser121

Target: the molecule itself
Assay: crystal structure

Row | Protein | stoichiometry N
1 | B1 | 4
2 | B2 | 4
3 | B3 | 4
